Experimental data published in patent US20240117062A1 (published 2024).
Where a chain is given by its changes, count along the chain named.

B1: CA10_parental (antibody, V domains shown)
VH: QVQLVESGGGVVQPGRSLRLSCAASGFTFSNFGMHWVRQAPGRGLEWVAVIWSDETNRYYADSVKGRFTVSRDNVKSTVYLQMNSLISEDTAVYYCARDQQYCSSDSCFTWFDPWGQGTLVTVSS
VL: QVVVTQESALTTSPGETVTLTCRSSTGTVTPSNYANWVQEKPDHFFTGLIGDNNSRPPGVPARFSASLIGDKAALTITGAQTEDEAMYFCALWFGNQWVFGGGTKVTVL
B2: CA10 Variant 6 (antibody, V domains shown)
VH: B1 VH
VL: QTVVTQEPSLTVSPGGTVTLTCASSTGTVTPSNYANWVQQKPGQFPRGLIGDNNSRPPGTPARFSASLLGGKAALTLSGVQPEDEAEYYCALWFGNQWVFGGGTKLTVL
B3: CA10 Variant 2 (antibody, V domains shown)
VH: B1 VH
VL: B2 VL with F45A
B4: CA10 Variant 1 (antibody, V domains shown)
VH: B1 VH
VL: B2 VL with A23R, G43D, Q44H, P46F, R47T, T60V, L69I, G71D
B5: CA10 Variant 4 (antibody, V domains shown)
VH: B1 VH
VL: QTVVTQEPSLTVSPGGTVTLTCASSTGAVTPGYYANWVQQKPGQAPRGLIGDNNNKPPWTPARFSGSLLGGKAALTLSGVQPEDEAEYYCALYYGGQWVFGGGTKLTVL
B6: CA10 Variant 5 (CA10_PE_V5) (antibody, V domains shown)
VH: B1 VH
VL: B5 VL with P31S, G48A, N55I, P58S
B7: CA10 Variant 3 (antibody, V domains shown)
VH: B1 VH
VL: B5 VL with G32S, Y33N, N55I, Y93W

What was measured:
Test in all cases: SPR
[1] = target: Cyno BCMA DTA-His (cynomolgus;, UniProt A0A2K5UD97 1-53; P00588 33-225)
[2] = target: T1, Human BCMA-Avi-His (human, UniProt Q02223 2-54)
T1 chain: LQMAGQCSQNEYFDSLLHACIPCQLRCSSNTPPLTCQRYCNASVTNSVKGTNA

[3] = target: T2, Human BCMA DTA-His (human;, UniProt Q02223 1-54; P00588 33-225)
T2 chain: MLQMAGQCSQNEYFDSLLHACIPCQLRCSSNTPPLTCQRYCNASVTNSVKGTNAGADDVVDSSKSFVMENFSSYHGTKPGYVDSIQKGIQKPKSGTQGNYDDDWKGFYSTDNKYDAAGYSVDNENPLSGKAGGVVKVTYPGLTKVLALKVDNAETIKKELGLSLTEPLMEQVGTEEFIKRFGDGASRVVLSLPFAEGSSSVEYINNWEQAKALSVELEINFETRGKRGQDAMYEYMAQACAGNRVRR

[4] = target: Cyno BCMA-Avi-His (cynomolgus, UniProt A0A2K5UD97 2-53)
Chain of Cyno BCMA-Avi-His (A0A2K5UD97 entry or part of it): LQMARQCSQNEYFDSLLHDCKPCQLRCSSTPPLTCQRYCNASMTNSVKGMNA

Binder | Kd [1] [nM] | Kd [2] [nM] | Kd [3] [nM] | Kd [4] [nM]
B1 | 0.0314 | 0.0694 | 0.393 | 1.43
B2 | 0.0962 | 0.075 | 0.0399 | 1.18
B3 | 0.0915 | 0.0666 | 0.478 | 1.89
B4 | 0.0418 | 0.0573 | 0.247 | 0.732
B5 | 13 | 2.57 | 3.07 | 64.2
B6 | 1.26 | – | – | 8.55
B7 | 0.861 | 0.182 | 0.247 | 11.6
